In patent publication US7482008B1, “Human T cell reactive feline protein (TRFP) isolated from house dust and uses therefor” (Merck Patent GmbH, priority 1989, dated 2009):

B1: peptide XZY: recombinant peptide: peptide X, peptide Z and peptide Y linked in this order (protein)
chain: MGHHHHHHEFKRDVDLFLTGTPDEYVEQVAQYKALPVFFAVANGNELLLDLSLTKVNATEPERKALPVVLENARILKNCVDAKMTEEDKE
B2: peptide XYZ: recombinant peptide: peptide X, peptide Y and peptide Z linked in this order (protein)
chain: MGHHHHHHLVPRGSKRDVDLFLTGTPDEYVEQVAQYKALPVVLENARILKNCVDAKMTEEDKEFFAVANGNELLLDLSLTKVNATEPER
B3: recombinant chain 2: recombinant TRFP chain 2 expressed in E. coli (protein, UniProt P30440 18-109, looked up)
Major allergen I polypeptide …: VKMAETCPIFYDVFFAVANGNELLLDLSLTKVNATEPERTAMKKIQDCYVENGLISRVLDGLVMTTISSSKDCMGEAVQNTVEDLKLNTLGR
modifications: expressed in E. coli
notes: recombinant TRFP chain 2 expressed in E. coli
B4: peptide YZX: recombinant peptide: peptide Y linked to peptide Z linked to peptide X (SEQ ID NO: 103) (protein)
chain: MGHHHHHHEFLVPRGSKALPVVLENARILKNCVDAKMTEEDKEFFAVANGNELLLDLSLTKVNATEPERKRDVDLFLTGTPDEYVEQVAQYKALPV
B5: peptide ZYX: recombinant peptide: peptide Z, peptide Y and peptide X linked in this order (protein)
chain: MGHHHHHHLVPRGSFFAVANGNELLLDLSLTKVNATEPERKALPVVLENARILKNCVDAKMTEEDKEKRDVDLFLTGTPDEYVEQVAQYKALPV
B6: peptide YXZ: recombinant peptide: peptide Y, peptide X and peptide Z linked in this order (protein)
chain: MGHHHHHHEFKALPVVLENARILKNCVDAKMTEEDKEKRDVDLFLTGTPDEYVEQVAQYKALPVFFAVANGNELLLDLSLTKVNATEPER

Legend:
[1] = test system: human IgE (cat allergic patient plasma); test: Direct binding ELISA of human IgE to coated antigen; details: direct binding ELISA or similar protocol
Method: The basic format of these ELISA assays was a direct binding assay wherein the antigen was coated onto the wells of a 96 well microtitre dish and then antibodies in solution are added and assayed for the binding capacity. The protocol for these assays was as follows:
The peptides were conjugated to HSA (human serum albumin) by two different methods based on their chemical structure. […] Both conjugates were filter purified and dialyzed against PBS. In the ELISA assay, the unbound coating antigens were removed and the wells were blocked with 0.5% gelatin in PBS, 200 μl/well for 2 hours at room temperature. The antibody solution was a pool of plasma samples from 20 patients that were skin test positive for commercial cat extract which was serially diluted with PBS-Tween 20 (PBS with 0.05% nonionic detergent Tween-Sigma, St. Louis Mo.) and 100 μl/well was added and incubated overnight at 4° C. (plasma dilutions are tested in duplicate). […] The second antibody (biotinylated goat anti-Human IgE, 1:1000 Kirkegaard & Perry Laboratories Inc. Gaithersburg, Md.), was added at 100 μl/well for one hour at room temperature. This solution was removed and streptavidin-HRPO, 1:1000, (Southern Biotechnology Associates, Inc., Birmingham, Ala.) was then added at 100 μl/well for one hour at room temperature (all wells were washed three times with PBS-Tween between each incubation step). TMB Membrane Peroxidase Substrate system (Kirkegaard & Perry Laboratories) was freshly mixed, and added at 100 μl/well. The color was allowed to develop for 2-5 minutes. The reaction was stopped by the addition of […] of 1 M phosphoric acid. Plates are read on a Microplate EL 310 Autoreader (Biotek Instruments, Winooski, Vt.) with a 450 nm filter. The absorbance levels of duplicate wells were averaged.

[2] = test system: T cells from cat-allergic patients; test: Secondary proliferation assay of T cells primed with TRFP, peptide YXZ or peptide YZX; assay type: cell-based, human
Method: The human cat allergic T cell response to peptides produced as above was examined. […] Peptide YZX was cleaved with thrombin as described in Example 25. Viable cells were then purified by Ficoll-Hypaque centrifugation and cultured for 2 additional weeks in RPMI-1640/5% AB serum containing 5 units recombinant human IL-2/ml and 5 units recombinant human IL-4/ml. The resting T cells were then tested in a secondary proliferation assay using a 96 well microtiter plate to assess T cell responses to various TRFP proteins or peptides (TRFP antigens). For assay, 2×10^4 resting T cells were cultured for 3 days at 37° C. in the presence of 2×10^4 autologous Epstein-Barr virus transformed B cells (25,000 Rads) as antigen presenting cells with various concentrations of antigen in 200 μl per well. Each well then received 1 μCi tritiated thymidine for 16 hours. The counts incorporated were collected onto glass fiber filters and processed for liquid scintillation counting. The stimulation indices for responses to each antigen were then calculated as the maximum CPM in response to antigen divided by the medium control CPM. A stimulation index of 2.5 was considered to be a positive T cell response. A summary of the results of 3 such experiments (patients 522, 519, and 386 is shown in FIG. 35a, FIG. 35b and FIG. 35c). As compared to the experiments shown in FIGS. 35a and 35b in the experiment shown in […], Fel-1.4 (chain 1, amino acid residues 6-17) was substituted for Fel-1.2 (chain 1, amino acid residues 1-17) and Fel-33.3 (chain 2, amino acid residues 26-40) was substituted for Fel-18 (chain 2, amino acid residues 23-48) in order to more closely resemble the constituent amino acids of peptides X and Z. In addition, in this experiment one peptide derived from the Y-Z junction of peptide YZX (amino acid residues 50-55 from chain 1 of TRFP and amino acid residues 14-19 from chain 2 of TRFP) and one peptide derived from the Z-X junction of peptide YZX (amino acid residues 34-39 of chain 2 of TRFP and amino acid residues 7-12 of chain 1 of TRFP) were synthesized and tested. These junction peptides were produced in order to determine whether these areas of peptide YZX produce a non-native epitope when formed in the peptide.

B6CBAF1 mice = test: Murine T cell response after immunization with peptide YZX, IL-2 production (CTLL-2); assay type: in vivo, mouse; details: mice immunized with 100 μg peptide YZX in CFA; label = antigen in culture
Method: 10 B6CBAF1 mice were immunized subcutaneously at the base of the tail and in the thigh region with 100 μg of peptide YZX in complete Freund's adjuvant. After 10 days, the inguinal, paraaortic, and popliteal nodes of the immunized mice were removed and pooled. The lymph node cells were suspended in cold RPMI 1640 with 1% fetal bovine serum (FBS) by passage through stainless steel mesh. The cells were washed 2 times with cold RPMI-1640 containing 1% FBS and maintained at 4° C.
The lymph node cells were plated at 4×10^6 cells/ml in RPMI 1640 with 10% FBS, 250 μg/ml penicillin G, 100 μg/ml streptomycin, and 5×10^−5 M 2-mercaptoethanol. […] After 24 hours, 50 μl of supernatant was removed from each culture and frozen overnight to eliminate live cell carryover. The supernatant was warmed to […] and washed. CTLL-2 indicator cells (ATCC # T1B 214) were added (5×10^3 cells/well). This indicator cell line requires IL-2 for continued growth. After 24 hours, H^3-thymidine (1 μCi/well) was added and the cells were further incubated for 4 hours. The plates were frozen and thawed, harvested on a Tomtec 96 well harvester (Tomtec, Orange, Conn.), and counted on a Betaplate beta counter (Pharmacia, Gaithersburg, Md.).

human IgE [3] = test: SDS/PAGE Western immunoblot of human IgE binding, plasma from patient #417; details: patient #417 plasma
Method: Western immunoblot analysis of the peptides produced in above was performed. The concentration of all protein samples (e.g., TRFP, recombinant chain 1 of TRFP, recombinant chain 2 of TRFP, peptide XYZ, peptide XZY, peptide YXZ, peptide YZX, peptide ZXY and peptide ZYX) for gel electrophoresis was determined by the BCA method (Pierce Co.). All protein samples were loaded on the gel at 5 μg/lane except TRFP at 10 μg/lane. Protein separation was carried out on a 15% acrylamide gel, and transfer was performed by electroblotting at 1.5 Amps for 1.5 hours onto nitrocellulose paper (Schleicher and Schuell, 0.1 microns) in a Hoeffer apparatus according to the protocol of Towbin, H., T. Stachlin, and J. Gordon, PNAS 76:4350 (1979). Proteins were rinsed in blot solution (25 mM Tris-HCl 7.5, 0.171 M NaCl and 0.5 ml/liter Tween 20). The blot was then blocked for one hour in blocking solution (1% milk in blot solution). Plasma from patient #417, used as a primary antibody source, was diluted in blocking solution to 10% and preabsorbed for 1.5 hours with unused nitrocellulose (2 cm×15 cm). The prepared human plasma was then incubated overnight on an orbital shaker with the protein blot section of interest. Following the first antibody incubation the blot section was washed three times, each wash involved a fifteen minute incubation in blot solution. The second antibody, specific for human IgE (biotinylated goat anti-human IgE, KPL Inc.), was diluted 1:2500 in blot solution and the incubation proceeded for two hours. Excess second antibody was subsequently removed by three 15 minute incubations with blot solution. ^125I Iodinated streptavidin (Amersham) was diluted 1:2500 in blot solution and incubated with blots for 1 hour, at 2 μCi in a 50 ml incubation volume. Blot sections were then washed with blot solution until the detectable radioactivity in the waste solution decreased to background levels. The blot section was then wrapped in saran wrap and exposed to film overnight with a cronex intensifying screen at −80° C.

human IgE [4] = test: ELISA of human IgE binding, plasma from patient #669; details: patient #669 plasma
Method: Corning assay plates (#25882-96) were coated with 10 μg/ml of each coating antigen (i.e., TRFP, chain 1 (recombinant chain 1 of TRFP), chain 2 (recombinant chain 2 of TRFP), peptide XYZ, peptide XZY, peptide YXZ, peptide YZX, peptide ZXY and peptide ZYX) listed in FIG. 34 at 50 μl/well and incubated overnight at 4° C. The coating antigens were removed and the wells were blocked with 0.5% gelatin in PBS, 200 μl/well for 2 hours at room temperature. Plasma from patient #669 was serially diluted with PBS-Tween 20 (PBS with 0.05% nonionic detergent Tween-20 Sigma, St. Louis Mo.) and 100 μl/well was added and incubated overnight at 4° C. (plasma dilutions are tested in duplicate). The second antibody (biotinylated goat anti-Human IgE, 1:1000, Kirkegaard & Perry Laboratories Inc. Gaithersburg, Md.), was added at 100 μl/well for one hour at room temperature. This solution was removed and streptavidin-HRPO, 1:10,000 (Southern Biotechnology Associates, Inc., Birmingham, Ala.) was then added at 100 μl/well for one hour at room temperature (all wells were washed three times with PBS-Tween between each incubation step). TMB Membrane Peroxidase Substrate system (Kirkegaard & Perry Laboratories) was freshly mixed, and added at 100 μl/well. The color was allowed to develop for 2-5 minutes. The reaction was stopped by the addition of 100 μl/well of 1M phosphoric acid. Plates were read on a Microplate EL 310 Autoreader (Biotek Instruments, Winooski, Vt.) with a 450 nm filter. The absorbance levels of duplicate wells were averaged.

[5] = patient 386, T cells primed with YZX
[6] = patient 519, cells primed with peptide YXZ

Row | Molecule | specific IgE binding [1] | T cell response of pooled lymph node cells (IL-2 production) (B6CBAF1 mice) | IgE binding, Western immunoblot (human IgE [3]) | further results
1 | Fel 8-1: TRFP chain 1 amino acids 5-33 (AVKRDVDLFLTGTPDEYVEQVAQYKALPV; UniProt P30438 27-55, looked up, fragment) | None of these peptides showed IgE binding |  |  | 
2 | Fel 31-1: TRFP chain 2 amino acids 14-40 (VTQALGVKMAETCPIFYDVFFAVANGN) | None of these peptides showed IgE binding |  |  | 
3 | peptide Z: amino acid residues 14-39 from chain 2 of TRFP (SEQ. ID. NO: 19) (FFAVANGNELLLDLSLTKVNATEPER) | None of these peptides showed IgE binding | significant response |  | T cell response [2, 5]: respond at a similar level or better; T cell response [2, 6]: positive responses; T cell response ([2]; patient 522, T cells primed with YXZ): respond at a similar level or better
4 | B1 |  | strong T cell responses | negative for IgE binding | 
5 | B2 |  |  | show IgE binding | IgE binding, ELISA (human IgE [4]): slight signal
6 | B3 |  |  | reduced compared to chain 1 | IgE binding, ELISA (human IgE [4]): somewhat lower binding
7 | B4 |  | respond well | negative for IgE binding | T cell response [2, 5]: respond at a similar level or better; T cell response ([2]; patient 386, T cells primed with native TRFP): positively respond
8 | B5 |  | strong T cell responses | negative for IgE binding | 
9 | B6 |  |  | negative for IgE binding | T cell response [2, 6]: positive responses; T cell response ([2]; patient 519, native TRFP-primed T cells): respond; T cell response ([2]; patient 522, T cells primed with native TRFP, SI 2.5 positive): positively respond
